Paper PMC60004

Legend:
[1] = molecular target: Bombyx mori aminopeptidase N, native, 115-kDa (115-120 kDa) Cry1Aa-binding receptor (Bombyx mori (endogenous in larval midgut)); assay: SPR
[2] = molecular target: Bombyx mori cadherin-like receptor BtR175, native, 175 kDa (Bombyx mori (endogenous in larval midgut)); assay: SPR

“Hybrid toxin 4109 (domains I and II of Cry1Aa, domain III of Cry1Ac)” was tested, and the Kd [1] was 78 nM, the koff [1] was 0.0015 s⁻¹ and the kon [1] was 19000 M⁻¹ s⁻¹. It also gave a Kd [2] of 2.6 nM, a koff [2] of 3.34e-05 s⁻¹ and a kon [2] of 13000 M⁻¹ s⁻¹.
